In patent US20200332015A1 (NAMAB THERAPEUTICS, published 2020):
Values belong to the binder of their own block, whether it stands above or below them.

Key:
[1] = biological target: T1, human CD137 expressed on Jurkat cells (human, UniProt Q07011 24-255); assay: cell-based or functional assay
[2] = biological target: T1, human CD137 expressed on Jurkat cells; assay: cell-based or functional assay; remark: listed apart in the source
[3] = biological target: T1, human CD137 expressed on Jurkat cells; assay: cell-based or functional assay; remark: listed apart in the source
[4] = biological target: T1, human CD137 expressed on Jurkat cells; assay: cell-based or functional assay; remark: listed apart in the source
[5] = biological target: human PDL1-Fc chimeric protein (human, UniProt Q9NZQ7 19-238, limits assumed); assay: SPR T200, antigen-Fc captured, molecule as analyte
Method: (§1) Affinity to PDL1 of the different species was determined by SPR measurements using a Biacore T200 device (GE Healthcare). An antibody specific for the Fc region of human IgGs was immobilized on a sensor chip (CM5 sensor chip, GE Healthcare) by amine-coupling. For all formats, with the exception of the Fc containing Morrison formats, PDL1-Fc chimeric protein from different species were captured by the immobilized antibody. Three-fold serial dilutions of the molecules specific for PDL1 (0.12-90 nM) were injected into the flow cells for three minutes and dissociation was monitored for 10 minutes. After each injection cycle, surfaces were regenerated with one injection of a 3 M MgCl₂ solution. The apparent dissociation (kd) and association (kₐ) rate constants and the apparent dissociation equilibrium constant (KD) were calculated using one-to-one Langmuir binding model. Affinity to CD137 of the different species was determined using the identical setup as for PDL1 with the exception that CD137-Fc chimeric proteins from different species were captured by the immobilized antibody.

[6] = biological target: T2, cynomolgus monkey Fc-tagged CD137 (R&D Systems, cat. 9324-4B-100) (cynomolgus monkey, UniProt A9YYE7 24-186); assay: SPR T200, antigen-Fc captured, molecule as analyte
T2 construct: also called cynomolgus CD137-Fc chimeric protein
T2 sequence (A9YYE7 entry or part of it): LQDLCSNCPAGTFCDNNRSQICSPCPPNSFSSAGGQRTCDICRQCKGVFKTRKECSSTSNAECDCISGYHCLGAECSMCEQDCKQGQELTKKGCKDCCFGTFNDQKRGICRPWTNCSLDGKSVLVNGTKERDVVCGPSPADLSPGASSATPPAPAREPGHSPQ
Method: as §1

[7] = biological target: T3, mouse Fc-tagged mouse CD137 (R&D Systems, cat. 937-4B-050) (mouse, UniProt P20334 24-187); assay: SPR T200, antigen-Fc captured, molecule as analyte
T3 construct: also called mouse CD137-Fc chimeric protein
T3 sequence (looked up): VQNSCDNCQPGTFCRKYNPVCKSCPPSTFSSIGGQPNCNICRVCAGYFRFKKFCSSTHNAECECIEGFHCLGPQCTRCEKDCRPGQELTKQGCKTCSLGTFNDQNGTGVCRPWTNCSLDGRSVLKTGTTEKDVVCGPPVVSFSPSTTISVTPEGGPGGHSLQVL
Method: as §1

[8] = biological target: T4, Fc tagged human CD137 (R&D Systems, cat. 838-4B-100) (human, UniProt Q07011 24-186); assay: SPR T200, antigen-Fc captured, molecule as analyte
T4 construct: also called CD137 Fc chimera; human CD137-Fc chimeric protein
Method: as §1

[9] = biological target: T4, Fc tagged human CD137 (R&D Systems, …); assay: SPR T200, Fc-tagged antigen captured, scFv analyte
Method: (§2) Affinity of the humanized scFvs to human CD137 was determined by SPR analysis on a T200 device (Biacore, GE Healthcare). […] After each analyte injection cycle, the anti-human Fc-specific IgG was regenerated and new antigen was captured. The scFvs were injected as analyte using a dose response multi-cycle kinetic assay over the captured CD137 with concentrations of the analyte ranging from 0.19 to 45 nM (three-fold dilutions steps) diluted in running buffer. Association and dissociation time were set to 300 s and 720 s, respectively. Obtained sensorgrams were fitted using the 1:1 binding model.

[10] = biological target: T2, cynomolgus monkey Fc-tagged CD137 (R&D …); assay: SPR T200, Fc-tagged antigen captured, scFv analyte
Method: as §2
Cross-reactivity to cynomolgus CD137 was measured with cynomolgus monkey Fc-tagged CD137 (R&D Systems, cat. 9324-4B-100) in a similar assay as used to measure binding to human CD137.

EC50 NFkB-luciferase, HCC827 without IFNy [1]: 16.1 ng/mL
Top of curve fit, NFkB-luciferase, HCC827 without IFNy [1]: 123
EC50 NFkB-luciferase, HCC827 with IFNy [2]: 11.9 ng/mL
Top of curve fit, NFkB-luciferase, HCC827 with IFNy [2]: 154
EC50 NFkB-luciferase, CHO-PDL1 cells [3]: 5.75 ng/mL
Top of curve fit, NFkB-luciferase, CHO-PDL1 cells [3]: 219
max. activation, HCC827 +IFNg [4]: 154%
max. activation, HCC827 -IFNg [4]: 123%
max. activation, NF-kB reporter gene, CHO-PD-L1 [4]: 219%
rel. IC50 (urelumab/test), HCC827 +IFNg [4]: 12.2 ratio
rel. IC50 (urelumab/test), HCC827 -IFNg [4]: 6.82 ratio
rel. IC50 (urelumab/test), NF-kB reporter gene, CHO-PD-L1 [4]: 18.1 ratio
Kd [5]: 0.075 nM
koff [5]: 0.00017 s⁻¹
kon [5]: 2.3e+06 M⁻¹ s⁻¹
Kd [6]: 1.3 nM
koff [6]: 0.00033 s⁻¹
kon [6]: 260000 M⁻¹ s⁻¹
Kd [7]: 410 nM
koff [7]: 0.027 s⁻¹
kon [7]: 65000 M⁻¹ s⁻¹
Kd [8]: 0.88 nM
koff [8]: 0.00027 s⁻¹
kon [8]: 310000 M⁻¹ s⁻¹
B1: PRO1123 (38-02-A04 sc05 IF scDb-i/33_03_G02 sc01 scDb-o) (bispecific antibody)
chain: DIQMTQSPSSLSASVGDRVTITCQASQSINDYLAWYQQKPGKAPKLLIYKASTLASGVPSRFSGSGSGTDFTLTISSLQPEDFATYYCQQGYIITDIDNVFGTGTKVTVLGGGGGSQVQLQESGPGLVKPSETLSLTCKVSGFSFSNSYWICWVRQPPGKGLEWIGCTFVGSSDSTYYANWAKGRVTISVDSSKNQVSLKLSSVTAADTAVYFCARHPSDAVYGYANNLWGQGTLVTVSSGGGGSGGGGSGGGGSGGGGSIQMTQSPSSLSASVGDRVTITCQASQSINNVLAWYQQKPGKPPKLLIYRASTLASGVPSRFSGSGSGTDFTLTISSLQPEDFATYYCQSSYGNYGDFGTGTKVTVLGGGGGSQVQLQESGPGLVKPSETLSLTCKVSGFSFSSGYDMCWIRQPPGKGLEWIGCVVAGSVDITYYASWAKGRVTISVDSSKNQFSLKLSSVTAADTAVYYCARKDAYSDAFNLWGQGTLVTVSS
notes: scDb; also called PR01123

EC50 NFkB-luciferase, HCC827 without IFNy [1]: 6.97 ng/mL
Top of curve fit, NFkB-luciferase, HCC827 without IFNy [1]: 135
EC50 NFkB-luciferase, HCC827 with IFNy [2]: 5.48 ng/mL
Top of curve fit, NFkB-luciferase, HCC827 with IFNy [2]: 208
EC50 NFkB-luciferase, CHO-PDL1 cells [3]: 6 ng/mL
Top of curve fit, NFkB-luciferase, CHO-PDL1 cells [3]: 242
max. activation, HCC827 +IFNg [4]: 208%
max. activation, HCC827 -IFNg [4]: 135%
max. activation, NF-kB reporter gene, CHO-PD-L1 [4]: 242%
rel. IC50 (urelumab/test), HCC827 +IFNg [4]: 19.7 ratio
rel. IC50 (urelumab/test), HCC827 -IFNg [4]: 16 ratio
rel. IC50 (urelumab/test), NF-kB reporter gene, CHO-PD-L1 [4]: 14.4 ratio
Kd [5]: ≤ 0.0035 nM
koff [5]: < 1e-05 s⁻¹
kon [5]: 2.8e+06 M⁻¹ s⁻¹
binding result [7]: no binding (tested: 0.12-90 nM)
Kd [8]: 3.5 nM
koff [8]: 0.00075 s⁻¹
kon [8]: 210000 M⁻¹ s⁻¹
B2: PRO1126 (38-02-A04 sc01 scDb-i/33_03_G02 sc03 Full scDb-o) (bispecific antibody)
chain: DFQLTQSPSSLSASVGDRVTITCQASQSINDYLAWYQQKPGKSPKLLIYKASTLASGVPSRFSGSGSGTDFTLTISSLQPEDFATYYCQQGYIITDIDNVFGTGTKVTVLGGGGGSQVQLQESGPGLVKPSETLSLTCKVSGFSFSNSYWICWIRQPPGKGLEWIGCTFVGSSDSTYYANWAKGRVTISVDSSKNQFSLKLSSVTAADTAVYYCARHPSDAVYGYANNLWGQGTLVTVSSGGGGSGGGGSGGGGSGGGGSIQMTQSPSSLSASVGDRVTITCQASQSINNVLAWYQQKPGKAPKLLIYRASTLASGVPSRFSGSGSGTDFTLTISSLQPEDFATYYCQSSYGNYGDFGTGTKVTVLGGGGGSQSQLQESGPGLVKPSETLSLTCKASGFSFSSGYDMCWVRQPPGKGLEWIACVVAGSVDITYYASWAKGRVTISKDSSKNQVSLKLSSVTAADTAVYFCARKDAYSDAFNLWGQGTLVTVSS
notes: scDb; also called PR01126

Kd [9]: 1.37 nM
koff [9]: 0.00048 s⁻¹
kon [9]: 350000 M⁻¹ s⁻¹
Kd [10]: 1.36 nM
koff [10]: 0.00053 s⁻¹
kon [10]: 388000 M⁻¹ s⁻¹
B3: PRO1181 (38-02-A04-sc05, IF graft, VH4, scFv) (scFv)
scFv: DIQMTQSPSSLSASVGDRVTITCQASQSINNVLAWYQQKPGKPPKLLIYRASTLASGVPSRFSGSGSGTDFTLTISSLQPEDFATYYCQSSYGNYGDFGTGTKVTVLGGGGGSGGGGSGGGGSGGGGSQVQLQESGPGLVKPSETLSLTCKVSGFSFSNSYWICWVRQPPGKGLEWIGCTFVGSSDSTYYANWAKGRVTISVDSSKNQVSLKLSSVTAADTAVYFCARHPSDAVYGYANNLWGQGTLVTVSS
notes: VL-linker-VH
